The results in this text go back to publication PMC4496704.

In assay [1] the target is Hsp-N (ATPase domain of mouse Hsp70; lacks the peptide-binding domain) (mouse). Kind of assay: cross-linking; without sulfatide (with or without lactosylceramide); 0.1 μM protein in PBS, 0.1% glutaraldehyde 10 min 30 °C, SDS-PAGE and Western blot. For orientation: A western blot detects proteins with antibodies after separation by electrophoresis.
Assay [2] addresses Recombinant mouse Hsp70 (70-kDa heat shock protein), wild type (mouse) (UniProt Q61696). The assay is described as above.

As usually defined, the stoichiometry N is the number of molecules, sites or subunits per partner or assembly. In assay [1], “Hsp-N (ATPase domain of mouse Hsp70; lacks the peptide-binding domain) (domain or fragment)” showed a stoichiometry N of 2.
Turning to “Recombinant mouse Hsp70 (70-kDa heat shock protein), wild type (from UniProt Q61696 1-641) (natural protein)”, in assay [2], the stoichiometry N stood at 2.
